Reference: patent US20110052582A1 (Hoffmann-La Roche, published 2011)

Biological target: T1, Soluble CDCP1 extracellular domain (CDCP1-ECD) (SEQ ID NO:30) fused to Streptavidin Binding Protein (SBP) (human, UniProt Q9H5V8 30-663)
T1 construct: also called SBP-CDCP1-ECD
T1 sequence: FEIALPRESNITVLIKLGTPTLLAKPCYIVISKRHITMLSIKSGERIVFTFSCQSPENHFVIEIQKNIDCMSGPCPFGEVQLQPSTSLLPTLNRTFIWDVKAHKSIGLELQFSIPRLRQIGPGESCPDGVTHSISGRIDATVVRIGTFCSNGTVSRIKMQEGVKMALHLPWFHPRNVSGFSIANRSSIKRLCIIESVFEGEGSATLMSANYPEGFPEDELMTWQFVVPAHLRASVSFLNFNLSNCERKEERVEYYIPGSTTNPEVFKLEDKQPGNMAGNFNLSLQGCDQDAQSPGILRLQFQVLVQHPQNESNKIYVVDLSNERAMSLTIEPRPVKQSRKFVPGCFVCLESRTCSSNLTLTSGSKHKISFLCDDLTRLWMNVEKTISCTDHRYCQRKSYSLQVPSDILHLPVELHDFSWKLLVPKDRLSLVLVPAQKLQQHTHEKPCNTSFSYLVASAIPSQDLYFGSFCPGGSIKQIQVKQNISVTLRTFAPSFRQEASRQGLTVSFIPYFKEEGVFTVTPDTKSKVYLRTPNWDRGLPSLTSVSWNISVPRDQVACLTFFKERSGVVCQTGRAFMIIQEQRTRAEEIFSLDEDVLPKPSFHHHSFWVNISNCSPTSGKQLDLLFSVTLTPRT
Test: ELISA on captured SBP-CDCP1-ECD, ratio relative to chimeric CUB4 (chHC4)
How it was run: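 Streptavidin plates coated overnight at 2–8° C with SBP-CDCP1-ECD HEK293 supernatant (1:15–1:40). Antibodies, undiluted or 12-step dilution, bound 90 min at room temperature; HRP anti-human IgG 1 h, ABTS read at 405/492 nm, signal expressed relative to chimeric chHC4 reference.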

B1: hHC4-c / hLC4-M (antibody, V domains shown)
VH: EVQLVESGGGLVQPGGSLRLSCAASGFTFNSYGMSWVRQAPGKGLEWVATISSGGSYTYYPDSVKGRFTISRDNAKNSLYLQMNSLRAEDTAVYYCARHPDYDGVWFAYWGQGTLVTVSS
VL: EIVLTQSPATLSLSPGERATMSCGASSSVFYLHWYQQKPGLAPRLWIYDTSKLASGIPDRFSGSGSGTDFTLTISRLEPEDFAVYYCQQWNSNPPTFGGGTKVEIK
relative binding ratio: 0.71

B2: hHC4-c / hLC4-a (antibody, V domains shown)
VH: EVQLVESGGGLVQPGGSLRLSCAASGFTFNSYGMSWVRQAPGKGLEWVATISSGGSYTYYPDSVKGRFTISRDNAKNSLYLQMNSLRAEDTAVYYCARHPDYDGVWFAYWGQGTLVTVSS
VL: EIVLTQSPATLSLSPGERATLSCSVSSSVFYVHWYQQKPGQAPRLLIYDTSKLASGIPARFSGSGSGTDFTLTISSLEPEDFAVYYCQQWNSNPPTFGGGTKVEIK
relative binding ratio: 0.34

B3: hHC4-c / hLC4-b (antibody, V domains shown)
VH: EVQLVESGGGLVQPGGSLRLSCAASGFTFNSYGMSWVRQAPGKGLEWVATISSGGSYTYYPDSVKGRFTISRDNAKNSLYLQMNSLRAEDTAVYYCARHPDYDGVWFAYWGQGTLVTVSS
VL: EIVLTQSPATLSLSPGERATLSCSVSSSVFYVHWYQQKPGQAPRLLIYDTSKLASGIPARFSGSGSGTDYTLTISSLEPEDFAVYYCQQWNSNPPTFGGGTKVEIK
relative binding ratio: 0.28

B4: hHC4-c / hLC4-c (antibody, V domains shown)
VH: EVQLVESGGGLVQPGGSLRLSCAASGFTFNSYGMSWVRQAPGKGLEWVATISSGGSYTYYPDSVKGRFTISRDNAKNSLYLQMNSLRAEDTAVYYCARHPDYDGVWFAYWGQGTLVTVSS
VL: EIVMTQSPATLSVSPGERATLSCSVSSSVFYVHWYQQKPGQAPRLLIYDTSKLASGIPARFSGSGSGTEFTLTISSLQSEDFAVYYCQQWNSNPPTFGGGTKVEIK
relative binding ratio: 0.29

B5: hHC4-c / hLC4-d (antibody, V domains shown)
VH: EVQLVESGGGLVQPGGSLRLSCAASGFTFNSYGMSWVRQAPGKGLEWVATISSGGSYTYYPDSVKGRFTISRDNAKNSLYLQMNSLRAEDTAVYYCARHPDYDGVWFAYWGQGTLVTVSS
VL: EIVMTQSPATLSVSPGERATLSCSVSSSVFYVHWYQQKPGQAPRLLIYDTSKLASGIPARFSGSGSGTEYTLTISSLQSEDFAVYYCQQWNSNPPTFGGGTKVEIK
relative binding ratio: 0.36

B6: hHC4-d / hLC4-I (antibody, V domains shown)
VH: EVQLLESGGGLVQPGGSLRLSCAASGFTFNSYGMSWVRQAPGKGLEWVSTISSGGSYTYYPDSVKGRFTISRDNSKNTLYLQMNSLRAEDTAVYYCAKHPDYDGVWFAYWGQGTLVTVSS
VL: EIVMTQSPATLSLSPGERATLSCRASSSVFYLSWYQQKPGQAPRLWIYDTSKLASGIPARFSGSGSGTDFTLTISSLQPEDFAVYYCQQWNSNPPTFGGGTKVEIK
binding result: no binding

B7: hHC4-d / hLC4-J (antibody, V domains shown)
VH: EVQLLESGGGLVQPGGSLRLSCAASGFTFNSYGMSWVRQAPGKGLEWVSTISSGGSYTYYPDSVKGRFTISRDNSKNTLYLQMNSLRAEDTAVYYCAKHPDYDGVWFAYWGQGTLVTVSS
VL: EIVMTQSPATLSLSPGERATMSCRASSSVFYLHWYQQKPGQAPRLWIYDTSKLASGIPARFSGSGSGTDFTLTISSLQPEDFAVYYCQQWNSNPPTFGGGTKVEIK
relative binding ratio: 0.38

B8: hHC4-d / hLC4-K (antibody, V domains shown)
VH: EVQLLESGGGLVQPGGSLRLSCAASGFTFNSYGMSWVRQAPGKGLEWVSTISSGGSYTYYPDSVKGRFTISRDNSKNTLYLQMNSLRAEDTAVYYCAKHPDYDGVWFAYWGQGTLVTVSS
VL: EIVLTQSPATLSLSPGERATLSCRASSSVFYLHWYQQKPGQAPRLWIYDTSKLASGIPARFSGSGSGTDFTLTISSLEPEDFAVYYCQQWNSNPPTFGGGTKVEIK
relative binding ratio: 0.52

B9: hHC4-d / hLC4-L (antibody, V domains shown)
VH: EVQLLESGGGLVQPGGSLRLSCAASGFTFNSYGMSWVRQAPGKGLEWVSTISSGGSYTYYPDSVKGRFTISRDNSKNTLYLQMNSLRAEDTAVYYCAKHPDYDGVWFAYWGQGTLVTVSS
VL: EIVLTQSPATLSLSPGERATMSCRASSSVFYLHWYQQKPGQAPRLWIYDTSKLASGIPARFSGSGSGTDFTLTISSLEPEDFAVYYCQQWNSNPPTFGGGTKVEIK
relative binding ratio: 0.56

B10: hHC4-d / hLC4-L2 (antibody, V domains shown)
VH: EVQLLESGGGLVQPGGSLRLSCAASGFTFNSYGMSWVRQAPGKGLEWVSTISSGGSYTYYPDSVKGRFTISRDNSKNTLYLQMNSLRAEDTAVYYCAKHPDYDGVWFAYWGQGTLVTVSS
VL: EIVLTQSPATLSLSPGERATMSCSVSSSVFYLHWYQQKPGQAPRLWIYDTSKLASGIPARFSGSGSGTDFTLTISSLEPEDFAVYYCQQWNSNPPTFGGGTKVEIK
relative binding ratio: 0.49

B11: hHC4-d / hLC4-M (antibody, V domains shown)
VH: EVQLLESGGGLVQPGGSLRLSCAASGFTFNSYGMSWVRQAPGKGLEWVSTISSGGSYTYYPDSVKGRFTISRDNSKNTLYLQMNSLRAEDTAVYYCAKHPDYDGVWFAYWGQGTLVTVSS
VL: EIVLTQSPATLSLSPGERATMSCGASSSVFYLHWYQQKPGLAPRLWIYDTSKLASGIPDRFSGSGSGTDFTLTISRLEPEDFAVYYCQQWNSNPPTFGGGTKVEIK
relative binding ratio: 0.8

B12: hHC4-d / hLC4-a (antibody, V domains shown)
VH: EVQLLESGGGLVQPGGSLRLSCAASGFTFNSYGMSWVRQAPGKGLEWVSTISSGGSYTYYPDSVKGRFTISRDNSKNTLYLQMNSLRAEDTAVYYCAKHPDYDGVWFAYWGQGTLVTVSS
VL: EIVLTQSPATLSLSPGERATLSCSVSSSVFYVHWYQQKPGQAPRLLIYDTSKLASGIPARFSGSGSGTDFTLTISSLEPEDFAVYYCQQWNSNPPTFGGGTKVEIK
relative binding ratio: 0.34

B13: hHC4-d / hLC4-b (antibody, V domains shown)
VH: EVQLLESGGGLVQPGGSLRLSCAASGFTFNSYGMSWVRQAPGKGLEWVSTISSGGSYTYYPDSVKGRFTISRDNSKNTLYLQMNSLRAEDTAVYYCAKHPDYDGVWFAYWGQGTLVTVSS
VL: EIVLTQSPATLSLSPGERATLSCSVSSSVFYVHWYQQKPGQAPRLLIYDTSKLASGIPARFSGSGSGTDYTLTISSLEPEDFAVYYCQQWNSNPPTFGGGTKVEIK
relative binding ratio: 0.38

B14: hHC4-I / hLC4-b (antibody, V domains shown)
VH: EVQLLESGGGLVQPGGSLRLSCAASGFTFNSYAMSWVRQAPGKGLEWVSAISSGGSYTYYADSVKGRFTISRDNSKNTLYLQMNSLRAEDTAVYYCAKHPDYDGVWFAYWGQGTLVTVSS
VL: EIVLTQSPATLSLSPGERATLSCSVSSSVFYVHWYQQKPGQAPRLLIYDTSKLASGIPARFSGSGSGTDYTLTISSLEPEDFAVYYCQQWNSNPPTFGGGTKVEIK
relative binding ratio: 0.07

B15: hHC4-H / hLC4-c (antibody, V domains shown)
VH: EVQLVESGGGLVQPGGSLRLSCAASGFTFNSYGMSWVRQAPGKGLEWVATISSGGSYKYYVDSVKGRFTISRDNAKNSLYLQMNSLRAEDTAVYYCARHPDYDGVWFAYWGQGTLVTVSS
VL: EIVMTQSPATLSVSPGERATLSCSVSSSVFYVHWYQQKPGQAPRLLIYDTSKLASGIPARFSGSGSGTEFTLTISSLQSEDFAVYYCQQWNSNPPTFGGGTKVEIK
notes: also called Humanized CUB4 Antibody No. 113
relative binding ratio: 0.44

B16: hHC4-04 / hLC4-c (antibody, V domains shown)
VH: EVQLLESGGGLVQPGGSLRLSCAASGFTFNSYGMSWVRQAPGKGLEWVSTISSGGSYTYYPDSVKGRFTISRDNSKNTLYLQMNSLRAEDTAVYYCARHPDYDGVWFAYWGQGTLVTVSS
VL: EIVMTQSPATLSVSPGERATLSCSVSSSVFYVHWYQQKPGQAPRLLIYDTSKLASGIPARFSGSGSGTEFTLTISSLQSEDFAVYYCQQWNSNPPTFGGGTKVEIK
relative binding ratio: 0.33

B17: hHC4-d / hLC4-c (antibody, V domains shown)
VH: EVQLLESGGGLVQPGGSLRLSCAASGFTFNSYGMSWVRQAPGKGLEWVSTISSGGSYTYYPDSVKGRFTISRDNSKNTLYLQMNSLRAEDTAVYYCAKHPDYDGVWFAYWGQGTLVTVSS
VL: EIVMTQSPATLSVSPGERATLSCSVSSSVFYVHWYQQKPGQAPRLLIYDTSKLASGIPARFSGSGSGTEFTLTISSLQSEDFAVYYCQQWNSNPPTFGGGTKVEIK
relative binding ratio: 0.45

B18: hHC4-07 / hLC4-c (antibody, V domains shown)
VH: EVQLLESGGGLVQPGGSLRLSCAASGFTFNSYAMSWVRQAPGKGLEWVSTISSGGSYTYYPDSVKGRFTISRDNSKNTLYLQMNSLRAEDTAVYYCAKHPDYDGVWFAYWGQGTLVTVSS
VL: EIVMTQSPATLSVSPGERATLSCSVSSSVFYVHWYQQKPGQAPRLLIYDTSKLASGIPARFSGSGSGTEFTLTISSLQSEDFAVYYCQQWNSNPPTFGGGTKVEIK
relative binding ratio: 0.04

B19: hHC4-03 / hLC4-c (antibody, V domains shown)
VH: EVQLLESGGGLVQPGGSLRLSCAASGFTFNSYGMSWVRQAPGKGLEWVSAISSGGSYTYYPDSVKGRFTISRDNSKNTLYLQMNSLRAEDTAVYYCAKHPDYDGVWFAYWGQGTLVTVSS
VL: EIVMTQSPATLSVSPGERATLSCSVSSSVFYVHWYQQKPGQAPRLLIYDTSKLASGIPARFSGSGSGTEFTLTISSLQSEDFAVYYCQQWNSNPPTFGGGTKVEIK
relative binding ratio: 0.07
